# Measurements reported in PMC10512467, “Alternative splicing of a single exon causes a major impact on the affinity of Caenorhabditis elegans tropomyosin isoforms for actin filaments” (Frontiers in Cell and Developmental Biology, 2023).
# Target: F-actin (actin purified from rabbit muscle acetone powder) (rabbit, UniProt P68135 1-377)
# Test: co-sedimentation; F-actin co-sedimentation (supernatant depletion): constant 2 uM LEV-11 isoform with 0-60 uM F-actin, 1 h, in F-buffer (0.1 M KCl, 2 mM MgCl2, 20 mM HEPES-KOH, pH 7.5, 1 mM dithiothreitol); 200,000 x g for 20 min; bound portion from the depletion of the supernatant, SDS-PAGE densitometry
# Conditions: both partners purified
binder,measurement,value
"LEV-11T (C. elegans low-molecular-weight tropomyosin isoform, exons E3b-E4a-E5a-E6-E7b-E8-E9b), recombinant with extra Ala-Ser after the initiator Met (natural protein) MASSKVNKEGAQQTSLLDVLKKKMRQAREEAEAAKDEADEVKRQLEEERKKREDAEAEVAALNRRIVLVEEDLERTEDRLKTATSKLEQATKAADEADRARKSMETRSQQDEERANFLETQVDEAKVIAEDADRKYEEVARKLAMVEADLERAEERAEAGENKIVELEEELRVVGNNLKSLEVSEEKALQREDSYEEQIRTVSSRLKEAETRAEFAERSVQKLQKEVDRLEELRDAEVLKARQLQDELDHMVQELNSV",Kd,3.7 µM
